Measurements taken from PMC5173320.

Target: GFP-FLN90 (short 90 kDa isoform of Drosophila filamin/cheerio with an N terminus EGFP tag) (Drosophila)
Assay: proximity ligation; in situ PLA (Duolink) in HEK293T cells co-expressing V5-dPak with GFP-FLN90 or GFP alone; fixed with 4% paraformaldehyde about 40 hr after transfection; mouse anti-V5 and rabbit anti-GFP; GFP+ cells scored as PLA+ if they had more than three puncta

GFP-FLN90 (short 90 kDa isoform of Drosophila filamin/cheerio with an N terminus EGFP tag) (Drosophila), sequence (Q9VEN1 whole entry, canonical isoform): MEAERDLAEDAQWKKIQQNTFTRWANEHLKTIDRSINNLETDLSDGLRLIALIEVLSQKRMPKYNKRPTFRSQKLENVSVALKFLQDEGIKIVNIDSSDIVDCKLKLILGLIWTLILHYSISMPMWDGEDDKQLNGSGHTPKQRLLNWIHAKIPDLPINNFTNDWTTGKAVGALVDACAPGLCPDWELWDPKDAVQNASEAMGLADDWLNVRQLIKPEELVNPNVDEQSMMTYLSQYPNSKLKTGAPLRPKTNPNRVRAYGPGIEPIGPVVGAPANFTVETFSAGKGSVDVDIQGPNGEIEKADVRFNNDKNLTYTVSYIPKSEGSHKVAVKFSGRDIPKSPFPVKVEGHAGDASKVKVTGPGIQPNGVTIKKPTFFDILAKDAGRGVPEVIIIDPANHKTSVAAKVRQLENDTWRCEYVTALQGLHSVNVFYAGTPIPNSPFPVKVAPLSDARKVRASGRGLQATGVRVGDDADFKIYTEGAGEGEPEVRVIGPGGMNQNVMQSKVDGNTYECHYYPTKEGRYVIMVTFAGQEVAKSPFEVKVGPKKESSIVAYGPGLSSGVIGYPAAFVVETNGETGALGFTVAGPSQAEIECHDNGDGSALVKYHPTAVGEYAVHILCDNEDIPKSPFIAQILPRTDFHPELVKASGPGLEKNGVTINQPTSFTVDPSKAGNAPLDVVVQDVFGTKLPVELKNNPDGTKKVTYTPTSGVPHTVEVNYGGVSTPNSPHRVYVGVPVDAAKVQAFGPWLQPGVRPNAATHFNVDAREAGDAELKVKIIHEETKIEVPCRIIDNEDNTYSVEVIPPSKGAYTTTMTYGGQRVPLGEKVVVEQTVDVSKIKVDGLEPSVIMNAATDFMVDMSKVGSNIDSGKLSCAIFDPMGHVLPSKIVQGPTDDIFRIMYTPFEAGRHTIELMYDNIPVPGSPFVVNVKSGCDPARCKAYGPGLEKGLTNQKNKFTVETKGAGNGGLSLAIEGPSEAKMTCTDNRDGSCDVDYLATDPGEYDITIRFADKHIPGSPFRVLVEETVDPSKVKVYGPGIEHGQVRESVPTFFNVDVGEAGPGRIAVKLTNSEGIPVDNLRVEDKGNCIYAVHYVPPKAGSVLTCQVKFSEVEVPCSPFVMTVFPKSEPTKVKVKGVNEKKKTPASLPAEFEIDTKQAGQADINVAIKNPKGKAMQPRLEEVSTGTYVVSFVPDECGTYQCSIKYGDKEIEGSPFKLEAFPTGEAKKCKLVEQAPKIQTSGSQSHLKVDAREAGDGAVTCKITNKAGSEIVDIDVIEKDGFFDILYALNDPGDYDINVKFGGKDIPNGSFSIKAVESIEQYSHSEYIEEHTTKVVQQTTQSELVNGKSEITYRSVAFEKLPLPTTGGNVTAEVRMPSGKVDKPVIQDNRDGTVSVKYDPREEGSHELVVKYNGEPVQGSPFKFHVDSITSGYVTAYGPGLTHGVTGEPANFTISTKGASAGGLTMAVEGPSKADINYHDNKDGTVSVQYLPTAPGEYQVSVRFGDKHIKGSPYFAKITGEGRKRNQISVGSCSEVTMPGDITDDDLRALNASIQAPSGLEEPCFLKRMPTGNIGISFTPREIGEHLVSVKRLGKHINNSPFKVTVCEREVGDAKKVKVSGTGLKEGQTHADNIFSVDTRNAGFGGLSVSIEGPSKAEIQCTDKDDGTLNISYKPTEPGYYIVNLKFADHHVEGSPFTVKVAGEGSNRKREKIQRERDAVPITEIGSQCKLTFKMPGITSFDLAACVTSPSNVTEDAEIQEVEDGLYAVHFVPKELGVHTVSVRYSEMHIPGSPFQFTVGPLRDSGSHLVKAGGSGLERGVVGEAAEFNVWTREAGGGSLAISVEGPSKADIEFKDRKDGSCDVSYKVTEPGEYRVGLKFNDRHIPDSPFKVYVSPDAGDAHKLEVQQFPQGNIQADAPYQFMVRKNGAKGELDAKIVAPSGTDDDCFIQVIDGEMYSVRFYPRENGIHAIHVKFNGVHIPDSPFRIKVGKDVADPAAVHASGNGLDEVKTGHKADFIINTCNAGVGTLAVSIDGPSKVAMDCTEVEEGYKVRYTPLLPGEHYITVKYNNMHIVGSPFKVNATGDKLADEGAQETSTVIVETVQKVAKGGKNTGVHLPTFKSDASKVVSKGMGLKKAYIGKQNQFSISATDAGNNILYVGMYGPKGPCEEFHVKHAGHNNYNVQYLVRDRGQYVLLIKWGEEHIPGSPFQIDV

PLA-positive cells among GFP+ cells (of 973 GFP+ cells): 484
Substance: V5-dPak (Drosophila p21-activated kinase Pak with a V5 tag) (from UniProt Q9VI13 1-704) (enzyme)
